Reference: patent US20020048584A1, “Method of treating residual HIV-I disease” (priority 2000, published 2002)

How the values were obtained:
[1] = Safety and tolerability of IL-2 and OKT3 stimulation therapy with hydroxyurea and ddI intensification in patients on HAART; format: in vivo, human
Description: Treatments with OKT3 and IL-2 are initiated with a physician present during a four to five day admission to the Bone Marrow Transplant Unit. The first dose of IL-2 is given 24 hours after infusion of OKT3, and continued for a total of fourteen days. After 72 hours, if the patient has no or mild adverse side-effects, then the patient can be discharged and followed in the Infectious Disease Clinic as an out-patient, continuing IL-2 administration at home. […] Of note, further treatments with OKT3 may not be possible due to the potential production of human anti-murine antibodies ([…]., et al., Transplant Rev. 5: 181-199, 1991). […] The NIAID standardized toxicity grading system will be utilized (Table 3). Toxicity is graded on a 1 to 4 scale. When toxicity is encountered the dose administered to subjects is modified. […] Level 2 dose reduction will include discontinuation from the study. For hydroxyurea, Level 1 dose reduction will be to 800 mg qday (400 mg po BID).

[2] = test system: CD4+ T-lymphocytes; conditions: cited from earlier work
[3] = OKT3 over 5 to 15 minutes on first day, followed by IL-2; cited from earlier work
[4] = test system: T-lymphocytes; conditions: solid organ transplant subjects; cited from earlier work
[5] = in vivo; cited from earlier work

Compound: O=c1[nH]cnc2c1ncn2[C@H]1CC[C@@H](CO)O1 [ddI, didanosine, reference compound]
- serious adverse side-effects ([1]; patient #28, entire trial): did not have serious adverse side-effects

Compound: IL-2: cytokine, 15,300 daltons, produced via recombinant DNA technology using genetically-engineered E. coli (Proleukin; Chiron)
- serious adverse side-effects ([1]; human, in vivo): did not have serious adverse side-effects
- increase in CD4+ T-lymphocytes ([2]; intravenous 18×10^6 IU per day, five-day treatments every two months, 6 cycles, baseline CD4+ greater than 200 cells/mm^3): approximately 400 cells per mm3
- CD4+ T-lymphocyte count, mean value after treatment ([2]; subcutaneous, 5 day courses every 8 weeks for 6 cycles, starting 7.5×10^6 IU bid, mean 355 at entry): 739

Compound: NC(=O)NO [hydroxyurea, reference compound]
- serious adverse side-effects ([1]; patient #28, entire trial): did not have serious adverse side-effects

Compound: OKT3: purified murine monoclonal antibody (IgG2a) directed to the CD3 antigen of human T-lymphocytic cells
- serious adverse side-effects ([1]; human, in vivo): did not have serious adverse side-effects
- maximum tolerated dose (MTD) [3]: 400 μg/m^2
- time to return of T-cell function to baseline levels after termination [4]: one
- chest pain, patients [5]: 14%
- dyspnea, patients [5]: 21%
- headache, patients [5]: 11%
- hypertension, patients [5]: 8%
- nausea, patients [5]: 19%
- rigor, patients [5]: 8%
- tachycardia, patients [5]: 10%
- tremor, patients [5]: 13%
- vomiting, patients [5]: 19%
- wheezing, patients [5]: 13%
